For one series, the system named is brown adipocyte. Kind of series: Transmission electron microscopy of interscapular brown adipose tissue. Type of series: in vivo, mouse. Particulars: HFD-fed male mice, 600 U once a week, 4 weeks. The text has this: FIG. 52 illustrates the interscapular brown adipose tissue (iBAT) examined by transmission electron microscopy at Day 3 and Day 7 of a 7-day intermittent fasting cycle after N-ABD094-rhArg injection. (A) The BAT of HFD-fed male mice administered with 600 U N-ABD094-rhArg (SEQ ID NO: 50) [HFD (rhArg) group] once a week for 4 weeks, in comparison to that of HFD-fed mice treated with vehicle [HFD (vehicle) group] […] (C) As examined under 5000× magnification, autophagosome engulfed the lipid droplet and breaking into tiny particles.
After prolonged feeding on a HFD, there was a further increase in the size (FIG. 53A) and weight of the interscapular BAT (FIG. 53B) in vehicle-treated DIO mice [HFD (vehicle) group] in comparison to the lean control mice [CD (vehicle) group], which was correlated with the presence of massive amount of enlarged white-like unilobular cells (FIG. 53A). As observed under transmission electron microscopy, brown adipocyte in mice fed with HFD [HFD (vehicle) group] had massive enlarged lipid droplets (FIG. 52A). […] Many autophagosomes were actively forming and engulfing the lipid droplets (FIG. 52B). The autolysosome was also found to be breaking down small lipid droplets, mixing with plenty of lysosomes in the structure (FIG. 52C).

Series [1] in a line: Half-life / therapeutic duration in circulation. On the set-up: species or system mice. Particulars: mouse, in vivo. The text has this:
As used herein, the term “half-life” or “½-life” refers to the time that would be required for the concentration of an agent, e.g., a fusion protein or arginine depleting agent as described herein, to fall by half in vitro or in vivo, for example, after injection into a mammal. In certain instances, the concentration of plasma arginine, after injection, is used herein as a proxy indicator of the half-life of the agent. In such instances, the term “therapeutic duration” is used to refer to the length of time a specified dosage of the arginine depleting agent is able to maintain the plasma concentration of arginine below a specified threshold concentration that a desired therapeutic effect is observed. In certain embodiments, the threshold concentration of plasma arginine is below 50 μM, below 40 μM, below 30 μM, below 20 μM, below 10 μM, below 5 μM, below 3 μM, or at a concentration below the detection limit of conventional analytical instrumentation.
Importantly, the present invention used a new ABD fusion approach to join an ABD and an arginase together so that arginase activity can be retained. Stable and soluble arginase-ABD fusion molecules that can bind to FcRn in a pH-dependent manner were successfully generated, allowing for efficient endosomal recycling. […] Taken together, a variety of different approaches are available for fine-tuning the pharmacokinetic properties of arginases, ensuring appropriate residence time in circulation for different disease conditions. Another key issue in the development of any therapeutic protein is to minimize immunogenicity to avoid adverse effects. Thus, the observed low immunogenicity of human arginase and the successful deimmunization of ABD (e.g. ABD094), which was also used in the present disclosure as gene fusion partner to extend the in vivo half-life, are important.

Series [2] can be described thus: Fat pad and organ mass at end of treatment. The format is in vivo, mouse.
Setting [3] is: DIO C57BL/6J male mice on HFD, 300 U rhArg once a week and/or 300 mg/kg metformin daily.
Setting [4] is: DIO C57BL/6J male mice on HFD, 600 U once a week, 5 weeks (artificial IF experiment).

Entries after “also recorded” stand apart in the source; their conditions may differ.

B1: N-ABD094-rhArg: recombinant human arginase fused to albumin binding domain ABD094 (SEQ ID NO: 50); engineered long-acting arginine-depleting enzyme (protein)
chain: MHHHHHHDEAVDANSLAEAKEAANAELDSYGVSDFYKRLIDKAKTVEGVEALKDAILAALPSGSNNNNNNGSGGMSAKSRTIGIIGAPFSKGQPRGGVEEGPTVLRKAGLLEKLKEQECDVKDYGDLPFADIPNDSPFQIVKNPRSVGKASEQLAGKVAEVKKNGRISLVLGGDHSLAIGSISGHARVHPDLGVIWVDAHTDINTPLTTTSGNLHGQPVSFLLKELKGKIPDVPGFSWVTPCISAKDIVYIGLRDVDPGEHYILKTLGIKYFSMTEVDRLGIGKVMEETLSYLLGRKKRPIHLSFDVDGLDPSFTPATGTPVVGGLTYREGLYITEEIYKTGLLSGLDIMEVNPSLGKTPEEVTRTVNTAVAITLACFGLAREGNHKPIDYLNPPK
modifications: N-ABD094-rhArg, Synthesized in the Lab
notes: engineered long-acting arginine-depleting enzyme
Consider B1, for which, in the series on brown adipocyte, the “TEM of BAT, Day 3: autophagy/lipophagy” value is given as “active lipophagy at Day 3”; the “TEM of BAT, Day 7: autophagosomes and autolysosomes” value was “continuous active autophagy (lipophagy) was taking place; also recorded: autophagosome and autolysosome numbers had prominently reduced by Day 7”. The “TEM of BAT, Day 7: mitochondria” value in the series on brown adipocyte (compared with Day 3) is “relatively large amount of mitochondria; also recorded: an increase in mitochondria number was observed”. Moreover, in series [1], the “Therapeutic duration (and half-life)” value was “much longer than BHA and BAH”. Moreover, the “Fat pad mass of perirenal and inguinal WAT, interscapular BAT and liver mass” value in series [2] (17-month old C57BL/6J male mice on chow diet, once a week, 21 weeks) is “significant reduction in the fat pad mass”. Besides, in series [2] (17-month old C57BL/6J male mice on chow diet, once a week, 21 weeks, versus CD Old (vehicle) and CD Young (vehicle)), the Mass of liver entry was “the lowest amongst all 3 groups”. In series [2] (setting [3]), the “Mass of organs including liver, kidney and BAT” value was “cannot reduce the mass of most organs”; the “Visceral and subcutaneous fat mass” value is reported as “did not reduce body fat”. In series [2] (setting [4]), the “Fat pad mass of perirenal and inguinal WAT and interscapular BAT” value was “marked reduction in the fat pad mass”; the Liver mass entry is on record as “prominently reduced to the same extent for both groups”. Besides, the Liver weight entry in series [2] (DIO C57BL/6J male mice on HFD, 600 U once a week, 12 weeks) was “the weight was similar to the lean control”. In addition, in series [2] (DIO C57BL/6J male mice on HFD, half dose alone), the Fatty pancreas result was “can also reverse the fatty pancreas”. Besides, the “Mass of organs including liver, pancreas and BAT” value in series [2] (DIO C57BL/6J male mice on HFD, rhArg once a week alone or 0.33 mg RA daily alone) was “can already reduce the mass of most organs”. The “Visceral and subcutaneous fat mass” value in series [2] (DIO C57BL/6J male mice on HFD, rhArg once a week and/or 0.33 mg RA daily) is on record as “did not reduce body fat”. Further, in series [2] (DIO ICR female mice on HFD, once a week, 56 weeks), the “Fat pad mass (WAT, BAT) and liver, kidney and heart mass” value was “significantly less than that of HFD-fed mice treated with vehicle”.
